Earlier results in US20240293553A1, “P-SELECTIN INHIBITORS AND USES THEREOF” (Beth Israel Deaconess Medical Center, Inc., priority 2021, published 2024).
Where “and” joins values, the source holds several entries; their conditions need not be identical. Equal entries are not always repeated.

Experiments:
P-selectin = target: T1, P-selectin (Homo sapiens, UniProt P16109); details: reported values
T1 sequence (P16109 42-830): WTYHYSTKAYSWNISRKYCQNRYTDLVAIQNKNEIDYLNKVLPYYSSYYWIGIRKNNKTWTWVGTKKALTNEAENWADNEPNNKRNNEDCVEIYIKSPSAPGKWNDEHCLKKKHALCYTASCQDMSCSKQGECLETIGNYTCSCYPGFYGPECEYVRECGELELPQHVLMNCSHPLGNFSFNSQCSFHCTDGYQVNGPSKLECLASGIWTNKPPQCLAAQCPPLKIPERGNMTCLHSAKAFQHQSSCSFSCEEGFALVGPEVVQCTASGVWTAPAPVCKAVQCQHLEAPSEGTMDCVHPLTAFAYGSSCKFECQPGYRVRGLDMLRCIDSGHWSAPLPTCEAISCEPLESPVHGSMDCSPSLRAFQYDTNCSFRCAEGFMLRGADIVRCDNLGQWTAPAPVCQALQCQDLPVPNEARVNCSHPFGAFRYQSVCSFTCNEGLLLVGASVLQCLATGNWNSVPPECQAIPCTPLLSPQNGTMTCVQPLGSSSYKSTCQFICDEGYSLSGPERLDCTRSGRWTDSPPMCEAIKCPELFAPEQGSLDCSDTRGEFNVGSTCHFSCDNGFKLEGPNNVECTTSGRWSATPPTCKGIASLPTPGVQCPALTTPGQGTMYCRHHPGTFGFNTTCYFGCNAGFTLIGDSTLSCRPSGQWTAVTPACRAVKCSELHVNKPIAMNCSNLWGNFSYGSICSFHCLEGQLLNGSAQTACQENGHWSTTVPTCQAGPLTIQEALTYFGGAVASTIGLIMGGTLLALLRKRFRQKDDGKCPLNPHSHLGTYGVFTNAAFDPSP

[1] = literature values

| Molecule | Kd (P-selectin) | t1/2 [1] |
| --- | --- | --- |
| PSGL-1: P-selectin glycoprotein ligand-1, glycoprotein expressed on the surface of all leukocytes; native ligand of P-selectin (protein, UniProt Q14242 42-412, looked up) P-selectin glycoprotein …: QATEYEYLDYDFLPETEPPEMLRNSTDTTPLTGPGTPESTTVEPAARRSTGLDAGGAVTELTTELANMGNLSTDSAAMEIQTTQPAATEAQTTQPVPTEAQTTPLAATEAQTTRLTATEAQTTPLAATEAQTTPPAATEAQTTQPTGLEAQTTAPAAMEAQTTAPAAMEAQTTPPAAMEAQTTQTTAMEAQTTAPEATEAQTTQPTATEAQTTPLAAMEALSTEPSATEALSMEPTTKRGLFIPFSVSSVTHKGIPMAASNLSVNYPVGAPDHISVKQCLLAILILALVATIFFVCTVVLAVRLSRKGHMYPVRNYSPTEMVCISSLLPDGGEGPSATANGGLSKAKSPGLTPEPREDREGDDLTLHSFLP | 73 nM and 70 to 300 nM | – |
| crizanlizumab: anti-P-selectin mAb approved for the treatment of sickle cell disease (antibody, chains of the INN, looked up, V domains shown) VH: QVQLVQSGAEVKKPGASVKVSCKVSGYTFTSYDINWVRQAPGKGLEWMGWIYPGDGSIKYNEKFKGRVTMTVDKSTDTAYMELSSLRSEDTAVYYCARRGEYGNYEGAMDYWGQGTLVTVSS VL: DIQMTQSPSSLSASVGDRVTITCKASQSVDYDGHSYMNWYQQKPGKAPKLLIYAASNLESGVPSRFSGSGSGTDFTLTISSLQPEDFATYYCQQSDENPLTFGGGTKVEIK | – | 10.6 days |
